± gives the standard error. Variants at the floor of the assay were thinned out.
B1: glmS ribozyme (parent)
chain: AUAAAAGCGCCAGAACUACAGAAAUGUAGUUGACGAGGAGGAGGUUUAUCGAAUUUUCGGCGGAUGCCUCCAAA

Experiments:
Settings in all cases: with glucosamine-6-phosphate
glucosamine-6-phosphate [1] = variants of: B1; assay: self-cleavage kobs at 40 uM GlcN6P; higher = faster cleavage; RNA array
Summary of the method: (§1)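 Glucosamine-6-phosphate in HEPES/KCl/Mg(OAc)2 buffer, at 40 μM to 10 mM, was flowed over barcoded ribozyme variants transcribed in situ by E. coli RNA polymerase on sequenced MiSeq chips. Tracking was through a hybridised Cy3 probe at 37 °C. kobs, kcat and KM came from exponential decay fits and weighted Michaelis–Menten fits of normalised per-tile medians.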

glucosamine-6-phosphate [2] = variants of: B1; assay: self-cleavage kobs at 160 uM GlcN6P; higher = faster cleavage; RNA array
Summary of the method: as §1

glucosamine-6-phosphate [3] = variants of: B1; assay: self-cleavage kobs at 640 uM GlcN6P; higher = faster cleavage; RNA array
Summary of the method: as §1

glucosamine-6-phosphate [4] = variants of: B1; assay: self-cleavage kobs at 10000 uM GlcN6P; higher = faster cleavage; RNA array
Summary of the method: as §1

glucosamine-6-phosphate [5] = variants of: B1; assay: self-cleavage kobs at 2500 uM GlcN6P; higher = faster cleavage; RNA array
Summary of the method: as §1

Variant	self-cleavage kobs at 40 uM GlcN6P (glucosamine-6-phosphate [1]) [s⁻¹]	self-cleavage kobs at 160 uM GlcN6P (glucosamine-6-phosphate [2]) [s⁻¹]	self-cleavage kobs at 640 uM GlcN6P (glucosamine-6-phosphate [3]) [s⁻¹]	self-cleavage kobs at 10000 uM GlcN6P (glucosamine-6-phosphate [4]) [s⁻¹]	self-cleavage kobs at 2500 uM GlcN6P (glucosamine-6-phosphate [5]) [s⁻¹]
G40A G62U	< 1e-05	< 1e-05	< 1e-05	< 1e-05	
A14C A48G U69C	< 1e-05				
U54A C67U	0.000285 ± 9.7e-05	0.000312 ± 9.1e-05	0.00116 ± 0.00032	0.00584 ± 0.0013	0.00976 ± 0.0027
A36C C58A U65A C68G	0.000139 ± 4.3e-05				0.000116 ± 2.7e-05
C8A C11U G38C C50U	< 1e-05		< 1e-05		< 1e-05
A12G A14U A36G A48G A53G	< 1e-05			< 1e-05	< 1e-05
G9U A12G G32U G43U U45A	< 1e-05				
G9U C70U	< 1e-05	< 1e-05	< 1e-05	< 1e-05	
U31G G63A	< 1e-05	< 1e-05	< 1e-05	< 1e-05	< 1e-05
G44U U57A U69A	< 1e-05	< 1e-05	< 1e-05	< 1e-05	
U31A U65C U69C	< 1e-05				
G9C G29C C67U	< 1e-05		< 1e-05	< 1e-05	
G7A A39G C58G	< 1e-05				
U47A G51C	< 1e-05	< 1e-05		< 1e-05	< 1e-05
C19A A53U	0.000466 ± 8.9e-05		0.00276 ± 0.0012	0.0123 ± 0.0028	
G44C U55G C70U	< 1e-05		< 1e-05		
C11G C58U	< 1e-05	< 1e-05		< 1e-05	
A64G U65C C68A	< 1e-05			< 1e-05	< 1e-05
G32U G38A	< 1e-05			< 1e-05	
A12U G44U U57A G59A	< 1e-05			< 1e-05	
A6G A48C	< 1e-05		< 1e-05	< 1e-05	
A33C C58A G62A	< 1e-05				
C8U C34G	< 1e-05	< 1e-05		< 1e-05	

Variant	self-cleavage kobs at 40 uM GlcN6P (glucosamine-6-phosphate [1]) [s⁻¹]	self-cleavage kobs at 160 uM GlcN6P (glucosamine-6-phosphate [2]) [s⁻¹]	self-cleavage kobs at 640 uM GlcN6P (glucosamine-6-phosphate [3]) [s⁻¹]	self-cleavage kobs at 10000 uM GlcN6P (glucosamine-6-phosphate [4]) [s⁻¹]	self-cleavage kobs at 2500 uM GlcN6P (glucosamine-6-phosphate [5]) [s⁻¹]
C34U A64C	< 1e-05	< 1e-05		< 1e-05	
A42C G51A	< 1e-05			< 1e-05	< 1e-05
G7U C34A	< 1e-05	< 1e-05	< 1e-05	< 1e-05	
G38U U49A C58A	< 1e-05				
C11U C34U	< 1e-05		< 1e-05	< 1e-05	
C19U	0.00125 ± 0.00046	0.00445 ± 0.0011	0.00527 ± 0.0011		0.0229 ± 0.0083
A36G G43A C58A G62C C68G	< 1e-05			< 1e-05	
C8G C50G	0.000322 ± 0.00014	0.000106 ± 2.1e-05	0.00014 ± 3.4e-05	0.000242 ± 7.8e-05	0.000123 ± 2.4e-05
A42C C61G	< 1e-05	< 1e-05	< 1e-05		< 1e-05
C11U G32C U55G A64C	< 1e-05		< 1e-05	< 1e-05	
G9U A48G	< 1e-05	< 1e-05	< 1e-05	< 1e-05	
A33G C58U	< 1e-05			< 1e-05	< 1e-05
G37A G38U C50G C67U	8.1e-05 ± 3.5e-05			0.000315 ± 8.1e-05	
U31G G44A G51U C61U C70G	< 1e-05				
A12U C34U G41U G66C	< 1e-05			< 1e-05	< 1e-05
C8U C11U C58A C67G	0.00018 ± 3.1e-05		0.00126 ± 0.00052	0.000209 ± 5.4e-05	0.000112 ± 4.5e-05
G7C A64U	< 1e-05			< 1e-05	< 1e-05
G41U G63U	< 1e-05	< 1e-05	< 1e-05	< 1e-05	< 1e-05
G13A U49A A64G	< 1e-05	< 1e-05	< 1e-05		
G29U A39G A64U	< 1e-05				
A14C G63A	< 1e-05		< 1e-05	< 1e-05	
G40C U54C	8.26e-05 ± 2.6e-05			0.00203 ± 0.00044	0.00131 ± 0.00028
A6G G44U	< 1e-05		< 1e-05	< 1e-05	< 1e-05

Variant	self-cleavage kobs at 40 uM GlcN6P (glucosamine-6-phosphate [1]) [s⁻¹]	self-cleavage kobs at 160 uM GlcN6P (glucosamine-6-phosphate [2]) [s⁻¹]	self-cleavage kobs at 640 uM GlcN6P (glucosamine-6-phosphate [3]) [s⁻¹]	self-cleavage kobs at 10000 uM GlcN6P (glucosamine-6-phosphate [4]) [s⁻¹]	self-cleavage kobs at 2500 uM GlcN6P (glucosamine-6-phosphate [5]) [s⁻¹]
C34G A36G G37A A42U G51C C67U	< 1e-05				< 1e-05
C34G A53U G63U A64G	< 1e-05			< 1e-05	
A14G C16U G41U	0.000207 ± 7.3e-05			0.00243 ± 0.00096	
G32U G44U U45A	< 1e-05				
G7C G51U	< 1e-05	< 1e-05	< 1e-05	< 1e-05	< 1e-05
G29A U54C	0.000148 ± 3.6e-05	0.000257 ± 7e-05	0.000813 ± 0.00033		0.00138 ± 0.00056
A53U U56G	0.000405 ± 6.8e-05	0.000558 ± 0.00015	0.00241 ± 0.00042	0.0151 ± 0.004	0.00421 ± 0.0011
A6C C8G G51A C71U	< 1e-05			< 1e-05	
A6U A36G A64U	< 1e-05	< 1e-05	< 1e-05	< 1e-05	< 1e-05
A14G A53G	0.00182 ± 0.00029	0.00412 ± 0.00073	0.0226 ± 0.0043	0.0452 ± 0.013	0.0146 ± 0.0045
A6C C34U	< 1e-05	< 1e-05	< 1e-05	< 1e-05	< 1e-05
A52C U56A	< 1e-05		< 1e-05		
G63U G66C	< 1e-05	< 1e-05		< 1e-05	< 1e-05
C8G G29A	< 1e-05	< 1e-05	< 1e-05	< 1e-05	< 1e-05
C8A U55G A64C U69G	0.000295 ± 0.00013			5.15e-05 ± 2.4e-05	
G7A G13A C68U	< 1e-05				
A1G	0.00124 ± 0.00034			0.0405 ± 0.014	
U31G A39G A64G	0.00023 ± 8.9e-05		0.00544 ± 0.0014	0.0288 ± 0.012	
A48U U49C	< 1e-05	< 1e-05		< 1e-05	< 1e-05
A53G C61G	< 1e-05				
C8U U65C	< 1e-05		< 1e-05		< 1e-05
A48C G51U	< 1e-05		< 1e-05	< 1e-05	
A33C G37C	< 1e-05		< 1e-05		< 1e-05

Variant	self-cleavage kobs at 40 uM GlcN6P (glucosamine-6-phosphate [1]) [s⁻¹]	self-cleavage kobs at 160 uM GlcN6P (glucosamine-6-phosphate [2]) [s⁻¹]	self-cleavage kobs at 640 uM GlcN6P (glucosamine-6-phosphate [3]) [s⁻¹]	self-cleavage kobs at 10000 uM GlcN6P (glucosamine-6-phosphate [4]) [s⁻¹]	self-cleavage kobs at 2500 uM GlcN6P (glucosamine-6-phosphate [5]) [s⁻¹]
C11A C16A U47C C61U	< 1e-05				< 1e-05
C11G A52C	< 1e-05	< 1e-05	< 1e-05	< 1e-05	< 1e-05
A33C G43C C58A U69A	< 1e-05		< 1e-05	< 1e-05	
G13C A33U A39G U47C C61U	< 1e-05				
C10A A33U	< 1e-05			< 1e-05	
A12U A53U	0.00177 ± 0.00024	0.00421 ± 0.00071	0.0159 ± 0.0029	0.112 ± 0.036	0.0274 ± 0.007
A12C G62C	< 1e-05			< 1e-05	< 1e-05
A12C G29U	0.000186 ± 2.6e-05	0.000725 ± 0.00022	0.00225 ± 0.00065	0.031 ± 0.014	0.00483 ± 0.0017
G32A G37A C50G C67U	6.41e-05 ± 2.1e-05				
A53G C68U	0.000296 ± 4.8e-05	0.00034 ± 7.7e-05	0.00399 ± 0.00064	0.00554 ± 0.0012	0.00239 ± 0.00052
U30A A39U G63U	< 1e-05		< 1e-05		< 1e-05
G7U G41U U46A G62U	< 1e-05		< 1e-05	< 1e-05	< 1e-05
G7C G35A	< 1e-05		< 1e-05	< 1e-05	< 1e-05
G44U C50G	< 1e-05			< 1e-05	
A15C U31C G51C U56G C70G	< 1e-05			< 1e-05	
C10G G38C U69G	< 1e-05		< 1e-05		
A14U G40A U56G	0.000117 ± 2.9e-05			0.00163 ± 0.00045	
A14C A64U	< 1e-05	< 1e-05	< 1e-05		
G9U C11A G59A A64U	< 1e-05				
A36C G37C G41C C50A A52C C71U	< 1e-05				
G35U G66C C67U	< 1e-05				
